# Reference: US20210343368A1, “Method for Engineering Synthetic Cis-Regulatory DNA” (Max-Delbrück-Centrum für Molekulare Medizin in der …, priority 2018, published 2021)
# B1: MGT #1: subtype-specific sLCR for mesenchymal glioblastoma (MES-GBM) (nucleic acid)
# chain: ATATTTATTTTTAGGACCAGAAAGTTAAAGTGAATTGGATTTGATCCATTTTCTGAAAGGCTGGCAAGAATTCTTGACATTGCACAGGAATTTCCATGTCAGCATGTTCTCACATGTATGATCTAATTTAGAGATTATTTTGGGGGGCGGGGGTTGAGGAAATGGCATGACTCAGAGTTTAAAAGCCCCAAATCTTAGCTGTGCCTGTGTAGCTTTACCACATAACCCATTGATAACTTAGTTGTGCAACCATCACCACCATCTGTTTTCAGAACTCTTTTCATTTTGCGAAACTGAAACCCGTTAAGCACTGATTTCCCACTCTCCCTCCTCCCAGCCCATAGCAAACCACCATCCCACCAGCACTTTCATTTCGCAAATGGCAAAACTGAAGCCGATATTGTGGTTGTGACTTATCCCAAAGTAATATACACATAAACCTCTATGGATGAGGAAAAAGACAGAGGGAAACTAAAAATTCAAAAGAACAAATTTGACTCACAGATTTGCTGACTCATAGTTGTGACACTTCCTGGCTCAGGAAGTTGAATTTCATTAAGCCTTTGTGGTTTGGGGCTCTGCTGTGCTTTGACAGCTCTGATCTCCTCCCTTCCGGCTGGGCTGTCTGGGGCGCTCTAAAATGAGTGTTGATTTAATGCACTGCCTTCGCACCCGTGCTGGTGCGTCCCGGGGACAGGGGTGGCTGTGCGGTGCCGCGGCGGCCGGCGGGGCTCCTTCCCCAGCAGGGGTGGGGACGCTGAGTCACGGATCTGTCACCGCTTTGCACCTCTCCGAGCCCTCGGGGGCCAAAGCAAAAGCGAAAGCGA
# modifications: sLCR
# B2: TGFB2: EMT inducer (protein, UniProt P61812 303-414, looked up)
# Transforming growth factor …: ALDAAYCFRNVQDNCCLRPLYIDFKRDLGWKWIHEPKGYNANFCAGACPYLWSSDTQHSRVLSLYNTINPEASASPCCVSQDLEPLTILYYIGKTPKIEQLSNMIVKSCKCS
# What was measured:
# A549 cells [1] = assay: IncuCyte longitudinal MGT #1 fluorescence; format: cell-based, human; details: GSK126 together with TGFB signaling
# Protocol: IncuCyte: IncuCyte automated longitudinal imaging was performed in 96 wells black walls plates (Greiner). 300,000 cells per plate were seeded to reach optimal confluence at the end of the experiment. GSK126 was aliquoted using a D300e, whereas TGFB1+2 were manually aliquoted to each well. Both were refreshed every second day. The last timepoint was independently verified using a plate reader (BMC Clariostar).
# Ezh2 inhibition can support Kras-driven EMT in several mouse and human lung cancer cells^41. In this setting, we tested the use of sLCRs in reflecting cellular and molecular responses to biological and chemical stimuli.
# A549 cells [2] = assay: FACS profile of MGT #1 expression and cell morphology; format: cell-based, human
# Protocol: FACS analysis: Analysis was performed with FlowJo_V10.
# A549-MGT #1low cells = assay: Cytokine screening, microplate reader MGT #1 fluorescence; format: cell-based, human; details: cytokine combined with GSK126
# Protocol: Phenotypic screening: Tumor cells were propagated as described above until the screening. Then we seeded 15′000/50 μl/well in 384 well plates (Corning), in Gibco FluoroBrite DMEM medium supplemented with the appropriate growth factors. Cells were dispensed as 50 μl suspension into each well using the SPARK20M Injector system (50 μl injection volume; 100 μl/s injection speed). For non-adherent cells (e.g. GICs), cells were further centrifuge at 1500 rpm for 1 h30 min at 37° C. Bottom reading fluorescence was scanned using a SPARM 20M TECAN plate reader at 37° C. in a 5% CO2-95% air (3% for GICs) in a humidified cassette, with the following settings for mVenus: Monochromator, Ex 505 nm±20 nm, Em 535 nm±7.5 nm, manual gain:198, flashes: 35, Integration time:40 μs. In independent replicas, cell viability was measured with 0.02% AlamarBlue solution in FluoroBrite medium with the following settings: Fluorescence Top reading. Monochromator, Ex 565 nm±10 nm, Em 592 nm±10 nm, manual gain: 88, flashes: 30, Integration time:40 μs.
# DMSO-soluble compounds such as GSK126, were robotically aliquoted using a D300e, whereas cytokines were robotically aliquoted to each well using an Andrew pipetting robot (AndrewAlliance), using the following concentrations:
# To exploit Ezh2 inhibition and MGT #1 as a framework to clarify the signaling basis of EMT in NSCLC cells, we next performed a cytokine screening in GSK126- and vehicle-treated A549-MGT #1^low cells.
# MCF7 cells = assay: FACS of MGT #1 expression in breast cancer cells; format: cell-based
# Protocol: (§1) The MCF7, MDA-231, A549 and H1944, cell lines (kindly provided by the Rene Bernards lab, NKI) were cultured in RPMI medium. All cell lines were supplemented with 10% FBS, and 5% penicillin and streptomycin at 37° C. in a 5% CO2-95% air incubator.
# (§2) Tumor subtypes are genetically engraved in breast cancer cells^40. […] To confirm that MGT #1 expression reflects that actual breast cancer subtype identity, we FACS sorted and sub-cloned the top MCF7-MGT #1 and the mid MDA-231-MGT #1 expressing cells. Nevertheless, further propagation of the FACS-sorted populations reestablished pre-sorting homeostasis, with MCF7 expressing lower levels of MGT #1 than MDA-231.
# T98G cell line = assay: sLCR-mCherry reporter expression and reprogramming in a glioma cell line; format: cell-based; details: transient over-expression of SALL3, SOX2 and POU3F2
# Protocol: The T98G and U87MG (kindly provided by the van Tellingen lab, NKI) were propagated in EMEM medium. For the experiments in FIG. 13a, T98G were switched to RHB-A supplemented with EGF (20 ng ml-1), bFGF (20 ng ml-1), heparin (1 μg ml-1) and 5% penicillin and streptomycin and propagated first on standard tissue culture-treated plastic, then in ultra-low binding plastic (CORNING).
# The Proneural GBM is thought to represent the common GBM ancestor subtype and also to reflect an oligodendrocytic cell-of-origin^26′^37. […] To test whether a PN sLCR would mirror the Proneural state, we decided to induce reprogramming of a FBS-driven conventional cell line into a PN-GICs using the master TFs underlying the PN identity^38. To this end, we transduced either MGT #1 or PNGT #2 into the T98G cell line, which is characterized by TP53 mutations (https://portals.broadinstitute.org/ccle), which are more likely to be associated with a PN phenotype^16. […] Of note, these set of experiments were conducted with a mCherry fluorescent protein carrying a nuclear localization signaling, thereby excluding that the fluorescent protein intensity (mCherry is brighter than mVenus), localization and stability (mVenus is transmembrane and stabilized) play a major role in the observed phenotypic transitions.
# MES-hGICs and PN-hGICs = assay: FACS of basal sLCR expression in hGICs; format: cell-based, human; details: growth-factor defined conditions in vitro
# Protocol: FACS sorting: Transduced hGICs were harvested into single cell suspensions and resuspended into cold RHB-A complete and filtered into FACS tubes. Sorting was conducted using BD FACSAria III or Fusion. The appropriate laser-filter combinations were chosen depending on the fluorophores being sorted for. Typically, to remove dead cells, events were first gated on the basis of shape and granularity (FSC-A vs. SSC-A) and doublets were excluded (FSC-A vs. FSC-H). Positive gates were established on PGK-driven and constitutively expressed H2B-CFP as sorting reporter, to sort for populations with low to medium intensity of sLCR-dependent fluorophore expression.
# Next, we transduced Proneural (PNGT #1-2) and Mesenchymal (MGT #1-2) sLCRs lentiviral particles into spontaneously immortalized human neural progenitor cells that acquired high copy number of PDGFRA, c-Myc and CDK4. To recapitulate the common PN and MES GBM genetic backgrounds, we further engineered hGICs to be depleted of PTEN and either bear IDH1^R132 and TP53^R273H point mutations or be further depleted of TP53 and NF1, thereby generating PN-hGICs and MES-hGICs, respectively. These cells show DNA methylation profiles similar to GBM patients and acquire subtype-specific gene-expression in vivo and therefore represent two distinct GBM subtypes.
# [3] = test system: MES-hGICs-MGT #1dim xenografts; assay: Orthotopic glioma xenograft, genetic tracing of MGT #1; format: in vivo, NSG mice
# Protocol: Tissue dissection and Cell surface staining: Brain tumor dissection was previously described in detail^77. Briefly, the tissue was dissected with a scalpel, digested in Accutase/DNasel (947 μl Accutase, 50 μl DNase I Buffer, 3 μl DNase I) at 37° C. until needed. Filtered through a 120 μm cell strainer first and a 40 μm cell strainer before RBC lysis (NH4Cl, 155 mM; KHCO3, 10 mM; EDTA, pH 7.4, 0.1 mM). After washing in cold PBS, viability and cell count were assessed automatically with 0.4% Trypan Blue staining using a TECAN SPARK20M.
# When surface markers were assessed, typically, 200.000 cells/antibody were used in 15 ml Falcons. Staining volume was 50 μl in RHB-A medium with primary antibody (e.g. CD133-APC; Miltenyi), on ice, in the dark, for 30′. […] Depending on whether cells were analyzed or sorted, data acquisition was performed on the BD LSRFortessa or cells were sorted using the BD Aria II or a Astrios Moflo. The appropriate laser-filter combinations were chosen depending on the fluorophores being analyzed. Typically, to remove dead cells, events were first gated on the basis of shape and granularity (FSC-SSC), and we used as viability dyes either AnnexinV or LIVE/DEAD Fixable Aqua Dead Cell Stain Kit (depending on the fluorophores being analyzed). […]
# We intracranially transplanted MES-hGICs-MGT #1^dim cells into NSG mice and longitudinally monitored tumor formation. […]
# MDA-231 cells = assay: FACS of MGT #1 expression in breast cancer cells; format: cell-based; details: short-term treatment
# Protocol: as §1, §2
molecule,measurement,setting,value
CC[C@H](C)n1cc(C)c2c(C(=O)NCc3c(C)cc(C)[nH]c3=O)cc(-c3ccc(N4CCNCC4)nc3)cc21 [GSK126],"MGT #1 fluorescence, longitudinal measurement",A549 cells [1],cooperatively induced
same,MGT #1 activation by flow cytometry,A549 cells [2]; combination of TGFB signaling and GSK126,synergistically induce MGT #1 activation
same,cell morphology change,A549 cells [2]; single treatment,did not induce a cellular morphology changes
same,MGT #1 expression by flow cytometry,"A549 cells [2]; single treatment, early time point",induces molecular transitions to a similar extent
same,"MGT #1 expression, fluorescence output",A549-MGT #1low cells,modest additive effect
B1,basal MGT #1 expression,MCF7 cells; after lentiviral transduction,lower MGT #1 expression compared to MDA-231 cells
same,sLCR reporter expression upon master TFs,T98G cell line,neutral to MGT #1 expression
same,basal sLCR expression,MES-hGICs and PN-hGICs,higher basal expression in MES-hGICs compared to PN-hGICs
same,distribution of MGT #1 expressing cells in the tumor (immunohistochemical staining),"[3]; intracranial transplant, n=10, humane end point",well confined within the invasive front
same,"endogenous mVenus fluorescence by flow cytometry, in vivo vs in vitro",[3]; xenograft-derived tumor cells,vast majority of the tumor cells switched to a MGT #1^low or dark state
B2,change of basal MGT #1 fluorescence,MCF7 cells; short-term treatment,did not strongly modify the basal MGT #1 fluorescence
same,change of basal MGT #1 fluorescence,MDA-231 cells,did not strongly modify the basal MGT #1 fluorescence
